Results as given in patent US20050221343A1 (LOS ALAMOS NATIONAL SECURITY, published 2005).
No end group written: not given here.

Target: T1, folding reporter GFP 1-10 (Aequorea victoria, UniProt P42212 1-214 = GFP)
T1 construct: range 1-214; also called folding reporter GFP fragment 1-214; FR
Assay: co-expression from compatible pET vectors in E. coli, colony fluorescence (split GFP complementation)

T1 sequence (P42212 other isoform, or with tags, fused parts or gaps limits assumed): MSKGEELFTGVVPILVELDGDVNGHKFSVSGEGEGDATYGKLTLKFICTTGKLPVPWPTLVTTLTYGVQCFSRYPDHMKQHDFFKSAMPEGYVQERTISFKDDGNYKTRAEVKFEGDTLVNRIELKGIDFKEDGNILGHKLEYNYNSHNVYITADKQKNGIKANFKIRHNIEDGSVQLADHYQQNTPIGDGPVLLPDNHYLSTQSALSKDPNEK

B1: GFP S11 wild type (peptide)
peptide: KRDHMVLLEFVTAAGITGT
modifications: also: fused to sulfite reductase
notes: also called GFP S11 214-230; wild type GFP S11
binding result: no binding
